Like-named read-outs stand apart in the source and are kept apart here.
Columns and labels:
HAdV-5 capsid [1] = assay: Virus-defensin equilibrium-binding assay, HAdV-5; parameters: species or system human adenovirus
Protocol: Neutralization of HAdV by α-defensins is dependent upon binding to the virus capsid, which can be disrupted in the presence of elevated concentrations of sodium chloride. To perform a more quantitative assessment of this interaction, increasing concentrations of HD5 were incubated with Ad5.eGFP to allow binding, and the virus/HD5 complex was then separated from unbound HD5 on a nycodenz gradient. Bound defensin was visualized after SDS-PAGE using a sensitive fluorescent total protein stain and quantified against a standard curve.
(§1) Figure 2 HD5 binding to HAdV. A) HD5 binding to a representative defensin-sensitive serotype (HAdV-5) was quantified by an equilibrium-binding assay. Data are the mean of the number of HD5 molecules bound per virion at the indicated HD5 concentrations from at least three independent experiments ± SD. Binding curves were fitted using Prism software. B) Binding of HD5 to additional defensin-sensitive (HAdV-7p) and resistant (HAdV-19c, -25p, -51p) serotypes expressed as a percent of HD5 bound to HAdV-5. Data are the mean of two or three independent experiments ± SD.
To measure HD5 binding to HAdV-5 and -51, HD5 was serially diluted in PBS and mixed with 5 µg purified virus. After 1 h incubation on ice, one half of each sample was separated by ultracentrifugation [209,000×g (avg.) for 2 hrs at 4°C] on a discontinuous gradient consisting of 300 µl of 30% nycodenz and 200 µl of 80% nycodenz in 50 mM NaCl, 20 mM HEPES pH 7.4 using an SW55ti rotor with adaptors (Beckman Coulter, Inc.). The visible virus band was collected. The other half of each sample was used to make a standard curve for quantification. All samples were boiled in reducing loading buffer and separated using a 16% PAGEgel (Expedeon, Inc., San Diego, CA) or 10–20% Tris-Tricine gel (Bio-Rad, Hercules, CA). The gels were stained with Deep Purple (GE Healthcare) and imaged on a Typhoon Trio. Virus bands were quantified using ImageQuant NT software (GE Healthcare). The amount of HD5 in each sample was normalized to protein V and hexon. The amount of HD5 in the centrifuged samples was then quantified against the standard curve using Prism software. Affinity and stoichiometry were estimated from the average data of at least three independent experiments using Prism software.

HAdV-4 (species E) = assay: Infection assay (hexon staining), HAdV-4; assay type: cell-based, human adenovirus; conditions: 15 µM HD5 or HNP1, A549 cells, hexon staining at ~48 h, vs. no defensin
Protocol: To determine whether sensitivity to α-defensins is a general property of HAdVs, serotypes representative of HAdV species A–F were tested for infectivity in the presence of 15 µM HD5 or HNP1 (Figure 1). Wild type HAdVs rather than vectors were used for these studies, and infectivity was assessed by staining for hexon production. […] These studies indicate that sensitivity to α-defensins is species specific. In addition, particular HAdV serotypes are not equally sensitive to all defensins, indicating defensin sequence specificity as well.
Figure 1 Sensitivity to neutralization by alpha-defensins is AdV species specific. HAdVs were incubated with 15 µM HD5 (A) or HNP1 (B) and assessed for infectivity on A549 cells. Data are the mean of the percent infectivity compared to control cells infected with each virus in the absence of defensin for at least three independent experiments ± SD. The upper limit for quantification of this assay is 200%. […]
Prior to use in this assay, each virus stock was titrated on A549 cells. […] In parallel, wells were infected with two-fold serial dilutions of each virus to establish a standard curve for quantification with an upper limit of 200%. […] Total well fluorescence above background was quantified with ImageJ software. For each virus, samples were quantified by nonlinear regression against the standard curve using Prism software (GraphPad Software, Inc., La Jolla, CA).

HAdV-5 capsid [2] = conditions: previous observation; cited from earlier work
Source text: Therefore, we considered which of the multiple binding sites visualized by cryoEM might lead to enhanced virion stability. We reasoned that we might find a negatively charged region o ... || Based on our combined functional and structural studies, we propose a model for neutralization in which α-defensins bind to critical capsid determinants at the point of contact between fiber and penton base, thereby preventing fiber release. One implication of this model is that fiber dissociation is absolutely required for subsequent uncoating events. This model cannot distinguish between the dissociation of fiber and penton base from the capsid independently or together as a complex. In the first case, defensin may actively lock the fiber onto the penton base. Alternatively, HD5 may obstruct ...

HAdV-19c = assay: Virus-defensin binding assay, HAdV-19c; parameters: species or system human adenovirus
Source text: as §1
We assessed HD5 binding to additional serotypes after incubation with 20 µM HD5 (Figure 2B). The sensitive serotype HAdV-7p bound 69.3±15.9% of the amount of HD5 bound to HAdV-5 in parallel samples; whereas, the corresponding values for the resistant serotypes HAdV-19c, -25p, and -51p were 32.5±7.5%, 3.3±5.8%, and 24.6±12.0%, respectively.
To measure HD5 binding to HAdV-5 and -51, HD5 was serially diluted in PBS and mixed with 5 µg purified virus. […] The other half of each sample was used to make a standard curve for quantification. […] Virus bands were quantified using ImageQuant NT software (GE Healthcare). […] The amount of HD5 in the centrifuged samples was then quantified against the standard curve using Prism software. […]

B1: HD5: human alpha-defensin; synthetic, obtained from Peptides International; three disulfide bonds (PDB 1ZMP) (peptide, UniProt Q01523 20-94, looked up)
Defensin alpha 5: ESLQERADEATTQKQSGEDNQDLAISFAGNGLSALRTSGSQARATCYCRTGRCATRESLSGVCEISGRLYRLCCR
modifications: Defensin-5
In the case of B1, the “95% confidence interval of HD5 molecules bound per virus particle at saturation” value (HAdV-5 capsid [1]; 95% confidence interval) is reported as 1603–3919 HD5 molecules, the Kd (HAdV-5 capsid [1]; 95% confidence interval, read-out: 95% confidence interval of KD) is reported as 2.8 to 26.2 µM and the “level of HD5 binding (in words)” value (HAdV-5 capsid [1]; HAdV-5) is reported as “specific binding”. The Kd (HAdV-5 capsid [1]; equilibrium binding, Ad5.eGFP, 1 h on ice in PBS, nycodenz gradient, at least three independent experiments, read-out: KD) was roughly 14.5 µM, the “sensitivity to neutralization (infectivity)” value (HAdV-4 (species E)) was “moderately sensitive” and the “effect on capsid proteins upon exposure to heat” value (HAdV-5 capsid [2]) was “stabilizes the capsid and prevents dissociation of capsid proteins, including fiber, upon exposure to heat”. For the same molecule, the “HD5 bound, percent of HD5 bound to HAdV-5” value (HAdV-19c; 20 µM HD5, mean of two or three independent experiments ± SD) was 32.5±7.5% and the “level of HD5 binding (in words)” value (HAdV-19c; HAdV-19c) was “only a low level of binding”.
